In PMC2744139 (Nature structural & molecular biology, 2009):

Target: T1, Cdc13 full-length (FL) (S. cerevisiae, UniProt P32797 1-924)
T1 sequence: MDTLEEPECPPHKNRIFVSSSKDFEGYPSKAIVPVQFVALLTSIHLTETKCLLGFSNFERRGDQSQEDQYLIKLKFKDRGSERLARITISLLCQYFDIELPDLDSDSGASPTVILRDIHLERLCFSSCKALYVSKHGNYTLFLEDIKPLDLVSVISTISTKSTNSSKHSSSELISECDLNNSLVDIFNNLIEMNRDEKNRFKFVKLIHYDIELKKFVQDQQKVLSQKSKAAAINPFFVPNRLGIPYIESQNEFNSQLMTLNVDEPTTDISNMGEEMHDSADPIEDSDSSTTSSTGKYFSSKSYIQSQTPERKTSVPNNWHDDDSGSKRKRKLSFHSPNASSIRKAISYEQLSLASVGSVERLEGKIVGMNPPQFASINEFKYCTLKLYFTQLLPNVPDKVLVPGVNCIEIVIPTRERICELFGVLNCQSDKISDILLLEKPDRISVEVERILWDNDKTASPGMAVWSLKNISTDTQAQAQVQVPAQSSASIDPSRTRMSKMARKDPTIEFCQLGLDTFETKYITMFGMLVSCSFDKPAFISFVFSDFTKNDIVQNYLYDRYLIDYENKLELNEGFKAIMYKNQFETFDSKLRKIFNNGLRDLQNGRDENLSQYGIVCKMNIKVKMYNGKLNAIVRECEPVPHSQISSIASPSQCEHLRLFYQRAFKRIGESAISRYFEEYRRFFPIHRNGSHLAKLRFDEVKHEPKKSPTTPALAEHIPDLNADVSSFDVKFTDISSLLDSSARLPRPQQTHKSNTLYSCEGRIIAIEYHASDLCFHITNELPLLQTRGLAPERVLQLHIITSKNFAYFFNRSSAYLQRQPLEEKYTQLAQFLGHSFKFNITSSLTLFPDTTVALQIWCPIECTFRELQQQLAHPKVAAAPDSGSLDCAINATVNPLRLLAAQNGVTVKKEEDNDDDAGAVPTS
Test: fluorescence polarisation

B1: Hsp82 (yeast Hsp90 molecular chaperone) (natural protein)
chain: not shown
**Q.** B1 was tested. Which Kd did it give?
**A.** ~325 nM
